According to PMC11242946, “Inhibition of ACE2–S Protein Interaction by a Short Functional Peptide with a Boomerang Structure” (Molecules, 2024):

Molecular target: ACE2 on Vero E6 cells (monkey (endogenous in Vero E6))
Assay: flow cytometry on cells

**Q.** functional peptide KYPAY (K5) was tested. Which IC50 did it give?
**A.** Its IC50 is 6.7 µM.
